For assay [1], the target named is T1, human C5 (human, UniProt P01031 19-673; P01031 678-1676, Beta and alpha chains are disulfide-linked and the protein is glycosylated.).
T1 construct: Either in-house recombinant C5 or plasma derived C5 (CALBIOCHEM) was used; also called recombinant human C5; plasma derived human C5
The experiment in a line: Biacore, 37 degrees C; antibody captured, human C5 injected (concentration not given); association pH 7.4, dissociation pH 7.4 (circles) or pH 5.8 (triangles). On the technique in general: In SPR one partner is held on a chip, and binding of the other changes the refractive index at the surface.

Assay [2] addresses T1, human C5. The experiment in a line: Biacore, captured antibody, pH 7.4, 37 C.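 Further: biacore binding response of anti-C5 antibody light chain variants captured on chip with human C5 injected, ACES running buffer containing 1.2 mM CaCl₂, parent light chain antibody set to 100.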
Description: The light chain variants were tested for the binding affinity to C5 at pH 7.4 and at 37 degrees C. using Biacore T200 instrument (GE Healthcare) or Biacore 4000 instrument (GE Healthcare). […] Anti-C5 antibodies were captured on an immobilized molecule, and then human C5 was injected. The running buffer used was pH 7.4 ACES Buffer containing 1.2 mM Ca (20 mM ACES, 150 mM NaCl, 1.2 mM CaCl₂, 0.05% Tween 20). A value, % binding, was determined by normalizing binding response with that of antibody comprising parent light chain as 100.
Assay [3] concerns the target T1, human C5. The experiment in a line: Biacore T200, 37 C, kd from the dissociation phase only, dissociation at pH 7.4.
Description: (§1) Anti-C5 antibodies were captured on an immobilized molecule, and then human C5 was injected. The running buffers used were ACES pH 7.4 and pH 5.8 (20 mM ACES, 150 mM NaCl, 1.2 mM CaCl₂, 0.05% Tween 20). Kinetics parameters at both pH conditions were determined by fitting the sensorgrams with 1:1 binding -RI (without bulk effect adjustment) model using Biacore T200 Evaluation software, version 2.0 (GE Healthcare).
(§2) These variants were examined for the binding against human C5.
Assay [4] deals with T2, cynomolgus monkey C5 (cynomolgus monkey, limits assumed).
T2 construct: also called recombinant cynomolgus monkey C5
T2 chain 1: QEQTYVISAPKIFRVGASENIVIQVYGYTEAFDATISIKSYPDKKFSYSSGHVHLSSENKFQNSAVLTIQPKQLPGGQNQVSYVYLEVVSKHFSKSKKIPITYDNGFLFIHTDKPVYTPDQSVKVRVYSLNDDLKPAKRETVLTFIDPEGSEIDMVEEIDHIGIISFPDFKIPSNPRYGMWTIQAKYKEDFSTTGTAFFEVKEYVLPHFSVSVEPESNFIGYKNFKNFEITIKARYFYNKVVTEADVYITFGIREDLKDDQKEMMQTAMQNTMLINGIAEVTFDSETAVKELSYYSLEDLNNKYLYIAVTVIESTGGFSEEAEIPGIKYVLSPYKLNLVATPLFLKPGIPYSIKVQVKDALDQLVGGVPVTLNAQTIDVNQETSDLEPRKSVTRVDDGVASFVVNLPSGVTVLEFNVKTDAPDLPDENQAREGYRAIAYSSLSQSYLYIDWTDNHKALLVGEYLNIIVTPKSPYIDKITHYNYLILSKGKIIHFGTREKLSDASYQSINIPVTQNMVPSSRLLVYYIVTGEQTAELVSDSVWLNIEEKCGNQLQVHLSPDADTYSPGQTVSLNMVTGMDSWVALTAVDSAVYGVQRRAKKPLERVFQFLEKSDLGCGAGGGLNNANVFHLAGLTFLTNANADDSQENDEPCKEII
T2 chain 2: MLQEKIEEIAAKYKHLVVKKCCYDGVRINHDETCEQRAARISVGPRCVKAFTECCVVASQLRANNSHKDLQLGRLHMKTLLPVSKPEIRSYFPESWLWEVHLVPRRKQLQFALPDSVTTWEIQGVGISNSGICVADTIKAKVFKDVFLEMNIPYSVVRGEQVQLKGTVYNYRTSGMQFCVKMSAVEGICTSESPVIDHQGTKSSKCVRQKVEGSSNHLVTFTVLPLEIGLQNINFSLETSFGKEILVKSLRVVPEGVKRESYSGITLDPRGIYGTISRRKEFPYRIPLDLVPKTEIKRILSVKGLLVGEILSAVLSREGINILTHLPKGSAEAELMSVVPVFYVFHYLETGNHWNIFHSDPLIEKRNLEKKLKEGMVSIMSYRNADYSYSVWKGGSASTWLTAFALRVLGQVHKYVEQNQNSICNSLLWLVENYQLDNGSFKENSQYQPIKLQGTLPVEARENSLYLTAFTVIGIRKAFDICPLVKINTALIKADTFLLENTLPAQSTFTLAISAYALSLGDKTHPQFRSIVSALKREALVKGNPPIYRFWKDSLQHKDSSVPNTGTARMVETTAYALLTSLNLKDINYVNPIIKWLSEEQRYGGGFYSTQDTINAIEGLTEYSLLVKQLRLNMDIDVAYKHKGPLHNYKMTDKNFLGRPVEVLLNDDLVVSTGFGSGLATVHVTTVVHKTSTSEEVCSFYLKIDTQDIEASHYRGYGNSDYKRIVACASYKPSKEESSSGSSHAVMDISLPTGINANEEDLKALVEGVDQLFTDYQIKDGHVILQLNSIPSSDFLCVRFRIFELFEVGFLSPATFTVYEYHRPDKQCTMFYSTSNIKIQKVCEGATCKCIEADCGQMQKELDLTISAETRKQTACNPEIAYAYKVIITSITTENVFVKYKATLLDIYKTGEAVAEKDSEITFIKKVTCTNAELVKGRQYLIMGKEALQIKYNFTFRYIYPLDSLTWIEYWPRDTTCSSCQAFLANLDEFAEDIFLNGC
The assay is described as above.
Description: as §1

In assay [5] the target is T1, human C5. The experiment in a line: Biacore T200, captured antibody, recombinant human C5 injected, pH 7.4, 37 C, 1:1 fit.
Description: as §1, §2
Assay [6] has as its target T2, cynomolgus monkey C5. The experiment in a line: Biacore T200, captured antibody, cynomolgus monkey C5 injected, pH 7.4, 37 C, 1:1 fit.
Description: as §1
Assay [7] deals with T1, human C5. The experiment in a line: Biacore T200, 37 C, kd from the dissociation phase only, association at pH 7.4 and dissociation at pH 5.8.
Description: as §1, §2
The target in assay [8] is T2, cynomolgus monkey C5. The assay is described as above.
Description: as §1

These results are taken from patent publication US20180016327A1 (Chugai, published 2018).

Numbering of substitutions follows the chain as printed.

B1: antibody comprising heavy chain of clone 18 and light chain of 20L065 (antibody, V domains shown)
VH: QVQLVQSGAEVKKPGSSVKVSCKASGGTFSSYAISWVRQAPGQGLEWMGGIIPIFGTANYAQKFQGRVTITADESTSTAYMELSSLRSEDTAVYYCARQLYGYYELDIWGQGTLVTVSS
VL: DIQMTQSPSSLSASVGDRVTITCRASQSIHDDLAWYQQKPGKAPKLLIYEASNLQSGVPSRFSGSGSGTDFTLTISSLQPEDFATYYCQQYSSYPHTFGQGTKVEIK
notes: also called clone 18 with common light chain
As to B1, the binding result with human C5 [1] was “binds”.

B2: CFP0017 17L 31H (antibody, V domains shown)
VH: B1 VH with Q99G, L100G, Y101W, G102W, Y103G, Y104G, E105A, I108Y
VL: B1 VL with H30E, D31H, E50H, N53S, Y91S, S92D, H96L
On to B2, for which, in the assay with human C5 [2], the “% binding (parent = 100)” value turned out to be 3.4%.

B3: CFP0017 17L 31A (antibody, V domains shown)
VH: B1 VH with Q99G, L100G, Y101W, G102W, Y103G, Y104G, E105A, I108Y
VL: B1 VL with H30E, D31A, E50H, N53S, Y91S, S92D, H96L
On to B3, for which the “% binding (parent = 100)” value with human C5 [2] is 0.6%.

B4: optimized 20//18 (bispecific antibody, V domains shown)
VH 1: QVQLQESGPGLVKPSETLSLTCAVSGYSISSGYYWGWIRQPPGKGLEWIGSIYHSGSTYYNKKLKSRVTISVDTSKNQFSLKLSSVTAADTAVYYCARHDPTWYHHGYFDYWGQGTLVTVSS
VH 2: B1 VH with A33S
VL: B1 VL with D31N, N53E, Q90H, H96Y
notes: Bispecific IgG with the common light chain 20L233
B4: the koff with human C5 [3] turned out to be 0.000104 s⁻¹; with cynomolgus monkey C5 [4] it was 0.000224 s⁻¹; in the assay with human C5 [5], 9.72e-05 s⁻¹; in the assay with cynomolgus monkey C5 [6], 0.000236 s⁻¹; with human C5 [7], 0.0594 s⁻¹; with cynomolgus monkey C5 [8] it was 0.107 s⁻¹. The figures for the Kd with human C5 [5] and in the assay with cynomolgus monkey C5 [6] were 0.268 nM and 0.664 nM, respectively. The kon with human C5 [5] was 362000 M⁻¹ s⁻¹; with cynomolgus monkey C5 [6], 355000 M⁻¹ s⁻¹.

As a reminder, the koff is the first-order rate constant of dissociation. Usually Kd stands for the equilibrium constant for the complex coming apart. By kon is commonly meant the rate constant with which the complex forms.
